Measured values: paper PMC3958868, “The Proteasome Activator PA28γ, a Negative Regulator of p53, Is Transcriptionally Up-Regulated by p53”

Biological target: p53 (UniProt P04637 1-393)
Assay: biotinylated DNA pull-down, western blot; 10 mM Tris-HCl pH 8.0, 40 mM KCl, 1 mM DTT, 6% glycerol, 0.05% NP-40; overnight at 4 °C; 20 µg p53, 1 µg biotinylated oligo; beads washed with Tris-EDTA (100 mM NaCl), binding buffer, PBS
Details: protein: recombinant; chain copies: 4; label: biotin

p53, sequence (P04637 whole entry): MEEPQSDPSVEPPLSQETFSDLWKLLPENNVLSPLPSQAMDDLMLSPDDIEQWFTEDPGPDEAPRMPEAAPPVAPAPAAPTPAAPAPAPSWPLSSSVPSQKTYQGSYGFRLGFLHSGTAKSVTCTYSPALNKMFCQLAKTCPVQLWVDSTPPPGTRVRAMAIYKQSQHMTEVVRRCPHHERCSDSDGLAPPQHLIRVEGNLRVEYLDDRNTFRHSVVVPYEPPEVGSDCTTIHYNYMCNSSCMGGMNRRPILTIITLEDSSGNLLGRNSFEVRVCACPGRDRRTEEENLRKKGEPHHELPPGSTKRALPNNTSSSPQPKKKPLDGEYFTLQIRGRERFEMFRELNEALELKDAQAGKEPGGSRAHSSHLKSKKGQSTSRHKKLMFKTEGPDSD

Binder	binding result
RE2 mutant (dsDNA) DNA 1: GTGTCGCAAGAGGTATAGTCTCATGCTT DNA 2: AAGCATGAGACTATACCTCTTGCGACAC	no binding
RE1 mutant (dsDNA) DNA 1: TTATCGCTTGAAATACTTGTAT DNA 2: ATACAAGTATTTCAAGCGATAA	no binding
RE2 wild-type (dsDNA) DNA 1: GTGCATGAAGAGGTATAGTCTCATGCTT DNA 2: AAGCATGAGACTATACCTCTTCATGCAC	binds
RE1 wild-type (dsDNA) DNA 1: TTACATGTTGAAATACTTGTAT DNA 2: ATACAAGTATTTCAACATGTAA	binds
